Patent US20160287696A1, “PAN POLLEN IMMUNOGENS AND METHODS AND USES FOR IMMUNE RESPONSE MODULATION” (LA JOLLA INSTITUTE FOR ALLERGY AND IMMUNOLOGY, priority 2013, published 2016)

Tested on: cultured PBMCs of the allergic donors
Assay: ELISPOT of IL-5 or IFNg production by cultured PBMCs of TG allergic donors in response to peptide
Type: cell-based, human
Settings: for NTGA's containing at least one T cell epitope, Th+ (Col 2): NTGA number given = criterion met, TG allergic donors n=20; for No of PG+ & th+ peptides per NTGA / No of PP & Th+ peptides per NTGA: Table 6; for No of PG+ & th+ peptides per NTGA: PG+ peptides recognized by T cells of grass allergic donors (n=20); for No of PP & Th+ peptides per NTGA: PP peptides recognized by T cells of grass allergic donors (n=20); for # Th+: Table 7, peptides per NTGA recognized by T cells of grass allergic donors (n=20)
Method in brief: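 PBMCs from Timothy grass-allergic donors (n=20), expanded in vitro with TG extract (50 μg/mL) or peptide pool, then plated at 1×10^5 cells/well with single 15-mer peptide (10 μg/mL). IL-5 or IFNg measured by ELISPOT; peptide response positive at ≥20 SFCs/10^6 PBMCs, P .05, stimulation index ≥2; value is number of responding donors.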

Molecule | NTGA's containing at least one T cell epitope, Th+ (Col 2) | No of PG+ & th+ peptides per NTGA | No of PP & Th+ peptides per NTGA | # Th+
NTGA 62: Phl p wild type sequence, Table 2 (protein, Phleum Pratense) MRRLSLILLAAAALLAAAVSAEPGPAPKLSPDFYSQTCPRAERIIAEVVQSKQMANPTTAAGVLRVFFHDCFVSGCDASVLIAPTHYAKSEKDADINHSLPGDAFDAVVRSKLALELECPGVVSCADILAIASRVLVTMTGGPRYPVPLGRKDSLSSNPAAPDVELPHSNFTVGRIIELFTAKGFTVQEMVALSGAHTLGFSHCQEFASRIYNYRDKGGKPAPFDPSMNPTYAKGLQAACQDYQKDPTIAAFNDIMTPGKFDNMYYVNIERGLGLLSTDEDMWSDMRTKPFVQRYAANNTDFFEDFAKAIEKLSMYGVKTGADGEIRRRCDAFNSGPNIQ | 62 | 1 | 0 | 2
NTGA 65: Phl p wild type sequence, Table 2 (protein, Phleum Pratense) AMAVDLTPRQPTKAYGGDGGAYYEWSPAELPMLGVASIGAAKLSLAAGGMSLPSYSDSAKVAYVLQGKGTCGIVLPEATKEKVVAIKEGDALALPFGVVTWWHNTPESSTELVVLFLGDTSKGHTPGKFTNFQLTGATGIFTGFSTEFVARAWDLDQDAAASLVSTQPGTGIVKLAPGHKMPVARAEDRKGMALNCLEAKLDVDIPNGGRVVVLNTVNLPLVKEVGLGADLVRIDAHSMCSPGFSCDSAYQVTYIVRGSGRVQVVGPDGKRVLETRIEGGSLFIVPRFHVVSKIADASGMEWFSIITTPNPIFSHLAGKTSVWKAISPEVLEAAFNTTPEMEKLFRSKRLDSEIFFAPS | 65 | 2 | 0 | 0
NTGA 76: Phl p wild type sequence, Table 2 (protein, Phleum Pratense) MASHIVGYPRMGPKRELKFALESFWDGKSSAEDLEKVATDLRASIWKQMSEAGIKYIPSNTFSYYDQVLDTTAMLGAVPDRYSWTGGEIGHSTYFSMARGNATVPAMEMTKWFDTNYHFIVPELGPETKFSYASHKAVSEYKEAKALGVDTVPVLVGPVSYLLLSKAAKGVEKSFSLLSLLGGILPIYKEVVAELKAAGASWIQFDEPTLVKDLAAHELAAFSSAYAELESSLSGLNVLIETYFADVPAESYKTLTSLSGVTAYGFDLVRGTKTLDLLKSVGIPSGKYLFAGVVDGRNIWADDLAASLSTLESLEAIVGKDKLVVSTSCSLMHTAVDLVNETKLDSEIKSWLAFAAQKVVEVNALGKALVGLKDEAYFAANAAAQASRRSSPRVNNEEVQKAAAALKGSDHRRATTVSARLDAQQKKLNLPVLPTTTIGSFPQTMDLRRVRREYKAKKISEEAYVSAIKEEISKVVKIQEELDIDVLVHGEPERNDMVEYFGEQLSGFAFTANGWVQSYGSRCVKPPIIYGDVSRPNPMTVFWSKMAQSMTPRPMKGMLTGPV | 76 | 5 | 0 | 0
NTGA 77: Phl p wild type sequence, Table 2 (protein, Phleum Pratense) QEVAGDVRMTDTRADEAERGITIKSTGISLYYEMSEESLASYKGDRDGNDYLINLIDSPGHVDFSSEVTAALRITDGALVVVDCIEGVCVQTETVLRQALGERIRPVLTVNKMDRCFLELQVDGEEAYQTFSRVIENANVIMATYEDALLGDVQVYPEKGTVAFSAGLHGWAFTLTNFAKMYASKFGVDESKMMERLWGENFFDPATKKWTSKNTGSGTCKRGFVQFCYEPIKQIIEICMNDQKDKLWPMLKKLGVTMKNDEKDLMGKALMKRVMQAWLPASRALLEMMVYHLPSPSKAQRYRVENLYEGPLDDVYANAIRNCDPEGPLMLYVSKMIPASDKGRFFAFGRVFAGRVATGMKVRIMGPNFVPGQKKDLYTKSVQRTVIWMGKKQESVEDVPCGNTVALVGLDQFITKNATLTGEKEVDACPIRAMKFSVSPVVRVAVQCKVASDLPKLVEGLKRLAKSDPMVLCSIEESGEHIIAGAGELHLEICLKDLQDDFMGGAEIIVSPPVVSFRETVLDKSCRTVMSKSPNKHNRLYMEARPLEEGLPEAIDEGRIGPRDDPKVRSKILSEEFGWDKDLAKKIWCFGPETTGPNMVVDMCKGVQYLNEIKDSVVAGFQWASKEGALADENMRGICFEVCDVVLHTDAIHRGGGQVIPTARRVIFASQLTAKPRLLEPVYLVEIQAPEGALGGIYGVLNQKRGHVFEEMQRPGTPLYNIKAYLPVIESFGFSATLRAATSGQAFPQCVFDHWDVMNSDPLEVDSQSFNLVKEIRKRKGLKEQMTPLSDFEDKL | 77 | 4 | 2 | 0
NTGA 86: Phl p wild type sequence, Table 2 (protein, Phleum Pratense) MSTAEATREENVYMAKLAEQAERYEEMVEFMEKVAKTADVGELTVEERNLLSVAYKNVIGARRASWRIISSIEQKEESRGNEAYVASIKEYRTRIETELSKICDGILKLLDSHLVPSATAAESKVFYLKMKGDYHRYLAEFKAGAERKEAAENTLVAYKSAQDIALADLPTTHPIRLGLALNFSVFYYEILNSPDRACNLAKQAFDEAIAELDSLGEESYKDSTLIMQLLRDNLTLWTSDNADEGGDEIKEASKPEGEGH | 86 | 1 | 1 | 0
NTGA 5/64: Phl p wild type full length sequence from which PG+ peptides of NTGA's 5 and 64 derive (protein, Phleum Pratense) MAAKCYPTVSDEYLAAVAKARRKLRGLIAEKNCAPLMLRIAWHSAGTFDVATKTGGPFGTMRCPAELAHGANAGLDIAVRLLEPIKEQVPILSYADFYQLAGVVAVEITGGPEVPFHPGRQDKTEPPPEGRLPDATLGSDHLRQVFTAQMGLSDQDIVALSGGHTLGRCHKERSGFEGAWTANPLIFDNSYFTELLTGEKEGLLQLPTDKTLLTDPAFRPLVEKYAADEDAFFADYAEAHLKLSELGFGE | 5/64 | – | – | –
NTGA 39/59: Phl p wild type full length sequence from which PG+ peptides of NTGA's 39 and 59 derive (protein, Phleum Pratense) MAPRKFFVGGNWKCNGASDDVKKIVTVLNEAEVPSEDAVEVVVSPPFVFLQQAKALLRPDFAVAAQNCWVRKGGAFTGEISAEMLVNLQVPWVILGHSERRALLSESNDFVADKVAYALAQGLKVIACIGETLEQREAGTTMEVVAAQTKAIAEKISDWTNVVLAYEPVWAIGTGKVASRAQAQEVHDGLRKWLHANVGPAVAESTRIIYGGSVNGANCKELAAQPDLDGFLVGGASLKPEFVDIIKSATVKSSS | 39/59 | – | – | –
NTGA 13: Phl p wild type sequence, Table 2 (protein, Phleum Pratense) MDEEYDVIVLGTGLKECILSGLLSVDGLKVLHMDRNDYYGGESTSLNLTKIWKRFKGSEATPDHLGVSKEYNVDMVPKFMMANGALVRVLIRTSVTKYLNFKAVDGSFVYNNGKIHKVPATDVEALKSNLMGLFEKRRARKFFIYVQDYEEEDPKSHEGLDLHKVTTREVISKYGLEDDTVDFIGHALALHRDDNYLDEPAIDTVKRMKLYAESLARFQGGSPYIYPLYGLGELPQAFARLSAVYGGTYMLNKPECKVEFDESGKAFGVTSEGETAKCKKVVCDPSYLPDKVTKVGRVARAICIMKHPIPDTKDSHSVQIILPKKQLKRKSDMYVFCCSYAHNVAPKGKFIAFVSTEAETDKPEIELKPGIDLLGPVEETFFDIYDRYEPANAPEEDNCFVTNSYDATTHFETTVKDVLALYSKITGKELDLSVDLNAASAGESE | – | 0 | 0 | 0
